Laboratory results: PMC13137973, “Tumor Necrosis Factor Receptor 2 Inhibits HIV-1 Infection by Blocking the Binding of gp120 to CD4” (International Journal of Biological Sciences, 2026)

Target: T1, human immunodeficiency virus 1 (HIV-1) (group M, subtype B, Isolate MN) gp120 Protein (HIV-1 (group M, subtype B, isolate MN), UniProt P05877 30-513)
T1 construct: also called gp120 core; His-tagged gp120; source: bought: Sino Biological (Catalog No: 40405-V08H)
Assay: ELISA; plates coated with human TNFR1 or TNFR2 (5 µg/mL, carbonate buffer pH 9.6, overnight 4 °C), blocked with 3% BSA; serial dilutions of gp120, 2 h room temperature; wash 20 mM Tris-HCl, 500 mM NaCl, 0.05% Tween-20, pH 7.5; bound gp120 detected with anti-His-HRP
Conditions: both partners purified

B1: human TNFR2 / CD120b protein, extracellular domain (residues 1-257) (domain or fragment, UniProt P20333-1 23-257, looked up)
chain: LPAQVAFTPYAPEPGSTCRLREYYDQTAQMCCSKCSPGQHAKVFCTKTSDTVCDSCEDSTYTQLWNWVPECLSCGSRCSSDQVETQACTREQNRICTCRPGWYCALSKQEGCRLCAPLRKCRPGFGVARPGTETSDVVCKPCAPGTFSNTTSSTDICRPHQICNVVAIPGNASMDAVCTSTSPTRSMAPGAVHLPQPVSTRSQHTQPTPEPSTAPSTSFLLPMGPSPPAEGSTGD
notes: also called tumor necrosis factor receptor type II; immobilized TNFR2; source: bought: Sino Biological (Catalog No: 10417-H08H)
  binding result: binds
